The EC50 is the concentration that produces a half-maximal response. Read a high EC50 as a need for much substance.

In patent US20220096653A1, “CONJUGATE COMPRISING LIGAND AND CEACAM5 ANTIBODY FAB FRAGMENT” (ASTELLAS PHARMA INC., priority 2019, published 2022) one finds EC50 data, which are given here for 16 molecules.

The labels stand for the following.
T1: CEACAM5 (R&D Systems, 4128-CM-050) (human, UniProt P06731 35-685)
T1 construct: Immobilised on the ELISA plate; also called human CEACAM5
T1 sequence (looked up): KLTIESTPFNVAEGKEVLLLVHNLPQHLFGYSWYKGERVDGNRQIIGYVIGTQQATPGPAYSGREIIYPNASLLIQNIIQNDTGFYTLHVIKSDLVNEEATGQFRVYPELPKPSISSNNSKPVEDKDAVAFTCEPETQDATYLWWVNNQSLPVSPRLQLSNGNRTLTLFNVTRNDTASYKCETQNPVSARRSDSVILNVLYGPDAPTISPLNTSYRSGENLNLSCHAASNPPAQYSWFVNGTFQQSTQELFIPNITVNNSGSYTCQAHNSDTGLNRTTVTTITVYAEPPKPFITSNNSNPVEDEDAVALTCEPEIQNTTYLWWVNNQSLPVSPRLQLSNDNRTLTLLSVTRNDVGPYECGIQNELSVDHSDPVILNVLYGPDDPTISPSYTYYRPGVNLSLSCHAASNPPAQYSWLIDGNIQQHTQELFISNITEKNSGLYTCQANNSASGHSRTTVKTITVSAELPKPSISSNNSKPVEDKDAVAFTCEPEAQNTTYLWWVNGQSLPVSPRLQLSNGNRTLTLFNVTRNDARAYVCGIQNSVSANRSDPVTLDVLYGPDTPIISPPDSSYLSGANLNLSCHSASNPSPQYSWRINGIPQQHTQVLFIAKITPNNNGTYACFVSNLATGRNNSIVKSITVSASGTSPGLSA

B1: (Y-S1-X)p-Fab^2 with Y Gd/DOTA, S1 -NH-CH2-(1,3-Ph)-C(═O)-, X -Gly-Lys*-Z2(#S)- (Fab, V domains shown)
VH: EVQLVESGGGLVQPGGSLRLSCAASGFNIRDTYMHWVRQAPGKGLEWVARIDPANGNSRYVPKFQGRFTISADTSRNTAYLQMNSLRAEDTAVYYCAPFGYYVSDYAMAYWGQGTLVTVSS
VL: DIQLTQSPSSLSASVGDRVTITCRAGESVDIFGVGFLHWYQQKPGKAPKLLIYRASNLESGIPSRFSGSGSRTDFTLTISSLQPEDFATYYCQQTNEDPYTFGQGTKVEIKR
modifications: labeling may sit on this chain; sites not stated; labeling portion (MW 1059) on amino groups of the Fab, sites and chain not stated; 1-2 per Fab by MS
notes: also called Ex-No 6; conjugate 6
B2: [Gd/DOTA-NH-CH2-(1,3-Ph)-C(═O)-Met-Gly-Lys*-Z2(#S)]p-Fab^2 (Fab, V domains shown)
VH: B1 VH
VL: B1 VL
modifications: labeling may sit on this chain; sites not stated; labeling portion (MW 1190) bound via 2-iminothiolane-treated amino groups of the Fab, sites and chain not stated; 1-2 per Fab by MS
notes: also called Ex-No 24; Conjugate No. 24
B3: (Y-S1-X)p-Fab^2 with Y Gd/DOTA, S1 - (bond), X -Gly-Tyr-Lys*-Z2(#N)- (Fab, V domains shown)
VH: B1 VH
VL: B1 VL
modifications: labeling may sit on this chain; sites not stated; labeling portion (MW 988) on amino groups of the Fab, sites and chain not stated; 1-4 per Fab by MS
notes: also called Ex-No 19; conjugate 19
B4: (Y-S1-X)p-Fab^2 with Y Gd/DOTA, S1 spacer (d), X -Gly-Lys*-Z2(#N)- (Fab, V domains shown)
VH: B1 VH
VL: B1 VL
modifications: labeling may sit on this chain; sites not stated; labeling portion (MW 954) on amino groups of the Fab, sites and chain not stated; 1-3 per Fab by MS
notes: also called Ex-No 26; conjugate 26
B5: [Gd/DOTA-NH-(CH2CH2O)3-CH2-C(═O)-NH-CH2-(1,3-Ph)-C(═O)-Gly-Lys*-Z2(#N)]p-Fab^2 (Fab, V domains shown)
VH: B1 VH
VL: B1 VL
modifications: labeling may sit on this chain; sites not stated; labeling portion (MW 1147) on amino groups of the Fab, sites and chain not stated; 1-3 per Fab by MS
notes: also called Ex-No 15; Conjugate No. 15
B6: (Y-S1-X)p-Fab^2 with Y Gd/DOTA, S1 spacer (b), X -Gly-Lys*-Z2(#N)- (Fab, V domains shown)
VH: B1 VH
VL: B1 VL
modifications: labeling may sit on this chain; sites not stated; labeling portion (MW 950) on amino groups of the Fab, sites and chain not stated; 1-3 per Fab by MS
notes: also called Ex-No 27; conjugate 27
B7: [Gd/DOTA-NH-CH2-(1,3-Ph)-C(═O)-Asp-Gly-Lys*-Z2(#N)]p-Fab^2 (Fab, V domains shown)
VH: B1 VH
VL: B1 VL
modifications: labeling may sit on this chain; sites not stated; labeling portion (MW 1073) on amino groups of the Fab, sites and chain not stated; 1-3 per Fab by MS
notes: also called Ex-No 11; Conjugate No. 11
B8: (Y-S1-X)p-Fab^2 with Y Gd/DOTA, S1 given only as drawing CHEM-US-00151, X -Met-Gly-Lys*-Z2(#N)- (Fab, V domains shown)
VH: B1 VH
VL: B1 VL
modifications: labeling may sit on this chain; sites not stated; labeling portion (MW 1101) on amino groups of the Fab, sites and chain not stated; 1-2 per Fab by MS
notes: also called Ex-No 34; conjugate 34
B9: [Gd/DOTA-NH-(CH2CH2O)3-CH2-C(═O)-NH-CH2-(1,3-Ph)-C(═O)-Met-Gly-Lys*-Z2(#N)]p-Fab^2 (Fab, V domains shown)
VH: B1 VH
VL: B1 VL
modifications: labeling may sit on this chain; sites not stated; labeling portion (MW 1278) on amino groups of the Fab, sites and chain not stated; 1-2 per Fab by MS
notes: also called Ex-No 29; Conjugate No. 29
B10: [Gd/DOTA-NH-(CH2CH2O)3-CH2-C(═O)-NH-CH2-(1,3-Ph)-C(═O)-Met-Gly-Lys*-Z2(#S)]p-Fab^2 (Fab, V domains shown)
VH: B1 VH
VL: B1 VL
modifications: labeling may sit on this chain; sites not stated; labeling portion (MW 1380) bound via 2-iminothiolane-treated amino groups of the Fab, sites and chain not stated; 1 per Fab by MS
notes: also called Ex-No 35; Conjugate No. 35
B11: (Y-S1-X)p-Fab^2 with Y Gd/DOTA, S1 -NH-(CH2)3-C(═O)-, X -Gly-Tyr*-CH2-C(═O)-NH-(CH2)2-Z1(#N)- (Fab, V domains shown)
VH: B1 VH
VL: B1 VL
modifications: labeling may sit on this chain; sites not stated; labeling portion (MW 1045) on amino groups of the Fab, sites and chain not stated; 1-3 per Fab by MS
notes: also called Ex-No 36; conjugate 36
B12: (Y-S1-X)p-Fab^2 with Y Gd/DOTA, S1 spacer (c), X -Gly-Lys*-Z2(#N)- (Fab, V domains shown)
VH: B1 VH
VL: B1 VL
modifications: labeling may sit on this chain; sites not stated; labeling portion (MW 908) on amino groups of the Fab, sites and chain not stated; 1-3 per Fab by MS
notes: also called Ex-No 28; conjugate 28
B13: (Y-S1-X)p-Fab^2 with Y Gd/DOTA, S1 -NH-(CH2CH2O)3-CH2-C(═O)-NH-CH2-(1,3-Ph)-C(═O)-, X -Gly-Tyr*-CH-C(═O)-NH-(CH2)2-Z1(#S) (Fab, V domains shown)
VH: B1 VH
VL: B1 VL
modifications: labeling may sit on this chain; sites not stated; labeling portion (MW 1384) on amino groups of the Fab, sites and chain not stated; 1-3 per Fab by MS
notes: also called Ex-No 39; conjugate 39
B14: (Y-S1-X)p-Fab^2 with Y Gd/DOTA, S1 - (bond), X -Met-Ile-NH-(CH2)2-Z1(#S)- (Fab, V domains shown)
VH: B1 VH
VL: B1 VL
modifications: labeling may sit on this chain; sites not stated; labeling portion (MW 1027) on amino groups of the Fab, sites and chain not stated; 1-2 per Fab by MS
notes: also called Ex-No 8; conjugate 8
B15: [Gd/DOTA-NH-CH2-(1,3-Ph)-C(═O)-Met-Gly-Lys*-Z2(#N)]p-Fab^2 (Fab, V domains shown)
VH: B1 VH
VL: B1 VL
modifications: labeling may sit on this chain; sites not stated; labeling portion (MW 1089) on amino groups of the Fab, sites and chain not stated; 1-3 per Fab by MS
notes: also called Ex-No 13; Conjugate No. 13
B16: (Y-S1-X)p-Fab^2 with Y Gd/DOTA, S1 - (bond), X -Gly-Tyr*-CH2-C(═O)-NH-(CH2O)3-CH2-C(═O)-NH-(CH2)2-Z1(#N)- (Fab, V domains shown)
VH: B1 VH
VL: B1 VL
modifications: labeling may sit on this chain; sites not stated; labeling portion (MW 1149) on amino groups of the Fab, sites and chain not stated; 1-2 per Fab by MS
notes: also called Ex-No 17; conjugate 17

The target of this assay is T1, CEACAM5 (R&D Systems, 4128-CM-050). Nature of the assay: ELISA on immobilised CEACAM5, 4-parameter fit, duplicate. As to the method:
Each anti-human CEACAM5 antibody Fab fragment conjugate prepared in Example 2 was subjected to ELISA to evaluate the binding activity thereof to CEACAM5. In the present test, a phosphate buffer (Nacalai Tesque Inc., 0.1 mol/L-Phosphate Buffer Solution (pH 7.2)) prepared to 10 mM by diluting 10-fold with distilled water was used as a solvent for an antigen immobilization liquid, and 20×PBS/Tween 20 Buffer (Thermo Fisher Scientific Inc., 28352) diluted 20-fold with distilled water was used as a wash liquid. In addition, for bovine serum albumin (BSA) used in the present test, 30% Bovine Serum Albumin solution (Sigma-Aldrich, Inc., A9576-50ML) was added in an appropriate proportion for use. CEACAM5 (R&D Systems, 4128-CM-050) was diluted with a 10 mM phosphate buffer (pH 7.2) to 0.1 μg/mL, and added to a Nunc MaxiSorp White 384 plate (Nunc, 4603272) at 30 μL per well, and the plate was incubated overnight at 4° C. for immobilization. The CEACAM5 immobilization liquid was removed by reverse centrifugation, and then blocking was carried out by adding a PBS/Tween 20 buffer containing 5.0% BSA. Thereafter, the blocking solution was removed by reverse centrifugation, a solution of each CEACAM5 antibody Fab² fragment conjugate described above or a Fab² fragment having no labeling portion (PB009-01) as a control at about 10000 ng/mL was diluted in 14 steps by 3-fold dilution using a PBS/Tween 20 buffer containing 1.0% BSA, and 30 μL was added per well and incubated at room temperature for 60 minutes. The plate was washed 3 times with a PBS/Tween 20 buffer, and Horseradish Peroxidase (HRP)-labeled goat anti-human IgG (H+L chain) antibody (MBL Life Sciences, 206) diluted 1000-fold using a PBS/Tween 20 buffer containing 5.0% BSA was added at 30 μL per well and incubated at room temperature for 30 minutes. The plate was washed 3 times with a PBS/Tween 20 buffer, and ECL Prime Western Blotting DETECTION Reagent (GE Healthcare, RPN2232) as a substrate was added at 30 μL per well. The substrate was incubated at room temperature for 15 minutes, and then a signal value thereof was measured using an Envision counter (PerkinElmer, Inc.).
The test for each antibody was carried out in duplicate, and an EC₅₀ value was calculated using a 4-parameter logistic curve model.
On the technique in general: ELISA stands for enzyme-linked immunosorbent assay.
For the molecule B1, the EC50 was 0.14 nM.

B2 showed an EC50 of 0.25 nM.

B3: the EC50 worked out at 0.26 nM.

For the molecule B4, the EC50 was found to be 0.3 nM.

On to B5, for which the EC50 stood at 0.13 nM.

On to B6, for which the EC50 came out at 0.46 nM. Against the preceding molecule, the EC50 is about 3.5-fold higher.

B7: the EC50 is 0.14 nM. Compared with the last molecule, the EC50 is about 3.3-fold lower.

Molecule B8 registered a concentration for a half-maximal effect (EC50) of 0.38 nM.

For the molecule B9, a half-maximal effect (EC50) was put at 0.3 nM.

Molecule B10 returned an EC50 of 0.43 nM. The EC50 values of the last two molecules are within 1.5-fold of each other.

For B11, the EC50 came out at 0.38 nM. This EC50 and that of the molecule before are within 1.5-fold of each other.

With B12, the EC50 turned out to be 0.36 nM.

The molecule B13 displayed an EC50 of 0.2 nM.

Molecule B14 registered an EC50 of 0.11 nM.

For the molecule B15, a half-maximal response (EC50) required 0.14 nM.

Molecule B16 displayed an EC50 of 0.23 nM.
